Data on six variants can be found in the supplement of paper PMC11908140.

The chains are these.
B1: library; numbered along this chain (parent)
chain: MRKPRAAVGSGHRKQAASQEGRQKHAKNNSQAKPSACDGLARQPEEVVLQASVSSYHLFRDVAEVTAFRGSLLSWYDQEKRDLPWRRRAEDEMDLDRRAYAVWVSEVMLQQTQVATVINYYTGWMQKWPTLQDLASASLEEVNQLWAGLGYYSRGRRLQEGARKVVEELGGHMPRTAETLQQLLPGVGRYTAGAIASIAFGQATGVVDGNVARVLCRVRAIGADPSSTLVSQQLWGLAQQLVDPARPGDFNQAAMELGATVCTPQRPLCSQCPVESLCRARQRVEQEQLLASGSLSGSPDVEECAPNTGQCHLCLPPSEPWDQTLGVVNFPRKASRKPPREESSATCVLEQPGALGAQILLVQRPNSGLLAGLWEFPSVTWEPSEQLQRKALLQELQRWAGPLPATHLRHLGEVVHTFSHIKLTYQVYGLALEGQTPVTTVPPGARWLTQEEFHTAAVSTAMKKVFRVYQGQQPGTCMGSKRSQVSSPCSRKKPRMGQQVLDNFFRSHISTDAHSLNSAAQ

The variants in this data set derive from B1. Nature of the data set: 8OG:A repair function score (normalized; synonymous = 0, nonsense = -1) (normalized log-likelihood score); higher = more repair activity (WT-like). The note with it: with 8OG:A DNA repair reporter (GFP) in HEK-293 MUTYH KO cells. In a few lines: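 Lentiviral MUTYH cDNA NNN codon-scan libraries in HEK-293 MUTYH knockout cells (10 pg/ml doxycycline) were co-transfected with an 8OG:A GFP repair reporter plus mCherry. At 72 h, viable mCherry+ cells were sorted into GFP+ (repair) and GFP− bins, three replicates per tile, then tile amplicons were sequenced. Per-tile Rosace fitness scores became a normalized repair function score anchored on synonymous and nonsense distributions. Synonymous medians were set to 0 and nonsense to -1; variants under 300 counts per million at the start were removed.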
As for MRKPRAAVGSGHRKQAASQEGRQKHAKNNSQAKPSACDGLARQPEEVVLQASVSSYHLFRDVAEVTAFRGSLLSWYDQEKRDLPWRRRAEDEMDLDRRAYAVWVSEVMLQQTQVATVINYYTGWMQKWPTLQDLASASLEEVNQLWAGLGYYSRGRRLQEGARKVVEELGGHMPRTAETLQQLLPGVGRYTAGAIASIAFGQATGVVDGNVARVLCRVRAIGADPSSTLVSQQLWGLAQQLVDPARPGDFNQAAMELGATVCTPQRPLCSQCPVESLCRARQRVEQEQLLASGSLSGSPDVEECAPNTGQCHLCLPPSEPWDQTLGVVNFPRKASRKPPREESSATCVLEQPGALGAQILLVQRPNSGLLAGLWEFPSVTWEPSEQLQRKALLQELQRWAGPLPATHLRHLGEVVHTFSHIKLTYQVYGLALEGQTPVTTVPPGARWLTQEEFHTAAVSTAMKKVFRVYQGQQPGTCMGEKRSQVSSPCSRKKPRMGQQVLDNFFRSHISTDAHSLNSAAQ [S480E], the “8OG:A repair function score” value was -0.00292. To MRKPRAAVGSGHRKQAASQEGRQKHAKNNSQAKPSACDGLARQPEEVVLQASVSSYHLFRDVAEVTAFRGSLLSWYDQEKRDLPWRRRAEDEMDLDRRAYAVWVSEVMLQQTQVATVINYYTGWMQKWPTLQDLASASLEEVNQLWAGLGYYSRGRRLQEGARKVVEELGGHMPRTAETLQQLLPGVGRYTAGAIASIAFGQATGVVDGNVARVLCRVRAIGADPSSTLVSQQLWGLAQQLVDPARPGDFNQAAMELGATVCTPQRPLCSQCPVESLCRARQRVEQEQLLASGSLSGSPDVEECAPNTGQCHLCLPPSEPWDQTLGVVNFPRKASRKPPREESSATCVLEQPGALGAQILLVQRPNSGLLAGLWEFPSVTWEPSEQLQRKALLQELQRWAGPLPATHLRHLGEVVHTFSHIKLTYQVYGLALEGQTPVTTVPPGARWLTQEEFHTAAVSTAMKKVFRVYQGQQPGTCMGCKRSQVSSPCSRKKPRMGQQVLDNFFRSHISTDAHSLNSAAQ [S480C] belongs -0.0352. For the variant MRKPRAAVGSGHRKQAASQEGRQKHAKNNSQAKPSACDGLARQPEEVVLQASVSSYHLFRDVAEVTAFRGSLLSWYDQEKRDLPWRRRAEDEMDLDRRAYAVWVSEVMLQQTQVATVINYYTGWMQKWPTLQDLASASLEEVNQLWAGLGYYSRGRRLQEGARKVVEELGGHMPRTAETLQQLLPGVGRYTAGAIASIAFGQATGVVDGNVARVLCRVRAIGADPSSTLVSQQLWGLAQQLVDPARPGDFNQAAMELGATVCTPQRPLCSQCPVESLCRARQRVEQEQLLASGSLSGSPDVEECAPNTGQCHLCLPPSEPWDQTLGVVNFPRKASRKPPREESSATCVLEQPGALGAQILLVQRPNSGLLAGLWEFPSVTWEPSEQLQRKALLQELQRWAGPLPATHLRHLGEVVHTFSHIKLTYQVYGLALEGQTPVTTVPPGARWLTQEEFHTAAVSTAMKKVFRVYQGQQPGTCMTSKRSQVSSPCSRKKPRMGQQVLDNFFRSHISTDAHSLNSAAQ [G479T], the “8OG:A repair function score” value was -0.0258. With MRKPRAAVGSGHRKQAASQEGRQKHAKNNSQAKPSACDGLARQPEEVVLQASVSSYHLFRDVAEVTAFRGSLLSWYDQEKRDLPWRRRAEDEMDLDRRAYAVWVSEVMLQQTQVATVINYYTGWMQKWPTLQDLASASLEEVNQLWAGLGYYSRGRRLQEGARKVVEELGGHMPRTAETLQQLLPGVGRYTAGAIASIAFGQATGVVDGNVARVLCRVRAIGADPSSTLVSQQLWGLAQQLVDPARPGDFNQAAMELGATVCTPQRPLCSQCPVESLCRARQRVEQEQLLASGSLSGSPDVEECAPNTGQCHLCLPPSEPWDQTLGVVNFPRKASRKPPREESSATCVLEQPGALGAQILLVQRPNSGLLAGLWEFPSVTWEPSEQLQRKALLQELQRWAGPLPATHLRHLGEVVHTFSHIKLTYQVYGLALEGQTPVTTVPPGARWLTQEEFHTAAVSTAMKKVFRVYQGQQPGTCMWSKRSQVSSPCSRKKPRMGQQVLDNFFRSHISTDAHSLNSAAQ [G479W], the “8OG:A repair function score” value is -0.0628. As to MRKPRAAVGSGHRKQAASQEGRQKHAKNNSQAKPSACDGLARQPEEVVLQASVSSYHLFRDVAEVTAFRGSLLSWYDQEKRDLPWRRRAEDEMDLDRRAYAVWVSEVMLQQTQVATVINYYTGWMQKWPTLQDLASASLEEVNQLWAGLGYYSRGRRLQEGARKVVEELGGHMPRTAETLQQLLPGVGRYTAGAIASIAFGQATGVVDGNVARVLCRVRAIGADPSSTLVSQQLWGLAQQLVDPARPGDFNQAAMELGATVCTPQRPLCSQCPVESLCRARQRVEQEQLLASGSLSGSPDVEECAPNTGQCHLCLPPSEPWDQTLGVVNFPRKASRKPPREESSATCVLEQPGALGAQILLVQRPNSGLLAGLWEFPSVTWEPSEQLQRKALLQELQRWAGPLPATHLRHLGEVVHTFSHIKLTYQVYGLALEGQTPVTTVPPGARWLTQEEFHTAAVSTAMKKVFRVYQGQQPGTCMVSKRSQVSSPCSRKKPRMGQQVLDNFFRSHISTDAHSLNSAAQ [G479V], the “8OG:A repair function score” value stood at 0.00419. Take MRKPRAAVGSGHRKQAASQEGRQKHAKNNSQAKPSACDGLARQPEEVVLQASVSSYHLFRDVAEVTAFRGSLLSWYDQEKRDLPWRRRAEDEMDLDRRAYAVWVSEVMLQQTQVATVINYYTGWMQKWPTLQDLASASLEEVNQLWAGLGYYSRGRRLQEGARKVVEELGGHMPRTAETLQQLLPGVGRYTAGAIASIAFGQATGVVDGNVARVLCRVRAIGADPSSTLVSQQLWGLAQQLVDPARPGDFNQAAMELGATVCTPQRPLCSQCPVESLCRARQRVEQEQLLASGSLSGSPDVEECAPNTGQCHLCLPPSEPWDQTLGVVNFPRKASRKPPREESSATCVLEQPGALGAQILLVQRPNSGLLAGLWEFPSVTWEPSEQLQRKALLQELQRWAGPLPATHLRHLGEVVHTFSHIKLTYQVYGLALEGQTPVTTVPPGARWLTQEEFHTAAVSTAMKKVFRVYQGQQPGTCMYSKRSQVSSPCSRKKPRMGQQVLDNFFRSHISTDAHSLNSAAQ [G479Y]: the “8OG:A repair function score” value came out at 0.025.
